± gives the uncertainty stated by the source.
Experiment: self-splicing fitness, log relative to wild type (ln ratio); higher = more splicing; Tetrahymena group I intron in knt gene, E. coli kanamycin selection, DiMSum; sequences stand for … in CUCUCU…GGAGGGAAAAGUUAUCAGGCAUGCACCUGGUAGCUAGUCUUUAAACCAAUAGAUUGCAUCGGUUUAAAAGGCAAGACCGUCAAAUUGCGGGAAAGGGGUCAACAGCCGUUCAGUACCAAGUCUCAGGGGAAACUUUGAGAUGGCCUUGCAAAGGGUAUGGUAAUAAGCUGACGGACAUGGUCCUAACCACGCAGCCAAGUCCUAAGUCAACAGAUCUUCUGUUGAUAUGGAUGCAGUUCACAGACUAAAUGUCGGUCGGGGAAGAUGUAUUCUUCUCAUAAGAUAUAGUCGGACCUCUCCUUAAUGGGAGCUAGCGGAUGAAGUGAUGCAACACUGGAGCCGCUGGGAACUAAUUUGUAUGCGAAAGUAUAUUGAUUAGUUUUGGAGUACUCGUGGUCG
Summary of the method: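 A randomised library covering all eight P1ex-region intron nucleotides was built with the intron in the knt kanamycin-resistance gene on pET-22b(+) and held in E. coli BL21(DE3). Cells were grown overnight at 37°C or 30°C on LB agar, with or without 25 μg/mL kanamycin, plus 100 μg/mL carbenicillin, 50 μM IPTG and 0.2% rhamnose, and pooled colonies were amplicon-sequenced on an Illumina HiSeq 2500. DiMSum fitness is the error-weighted combination of wild-type-normalised replicate fold changes, kanamycin versus none.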

| Sequence | self-splicing fitness (ln) (30 °C) | self-splicing fitness (ln) (37 °C) |
| --- | --- | --- |
| GAAAAGCAAUAUUACGGUGG | -3.78 ± 0.2 | -1.66 ± 0.15 |
| GAAAAGCAAUAUUACGUACA | -0.498 ± 0.066 | -0.0587 ± 0.082 |
| GAAAAGCAAUAUUACGUAUA | -0.936 ± 0.098 | -0.833 ± 0.12 |
| GAAAAGCAAUAUUACGUCGG | -4.39 ± 0.32 | -2.89 ± 0.24 |
| GAAAAGCAAUAUUACGUGAA | -1.56 ± 0.065 | -1.33 ± 0.085 |
| GAAAAGCAAUAUUACGUGGC | -3.57 ± 0.2 | -2.06 ± 0.16 |
| GAAAAGCAAUAUUACGUGGU | -3.58 ± 0.17 | -2.79 ± 0.2 |
| GAAAAGCAAUAUUACGUGUU | -2.35 ± 0.083 | -1.18 ± 0.088 |
| GAAAAGCAAUAUUACGUUCA | -0.878 ± 0.086 | -0.773 ± 0.082 |
| GAAAAGCAAUAUUACGUUGC | -3.83 ± 0.15 | -2.67 ± 0.14 |
| GAACAGCAAUAUUACGAACG | -1.21 ± 0.1 | -0.566 ± 0.14 |
| GAACAGCAAUAUUACGAGCU | -1.99 ± 0.091 | -1.18 ± 0.09 |
| GAACAGCAAUAUUACGCAGA | -2.1 ± 0.14 | -1.66 ± 0.12 |
| GAACAGCAAUAUUACGCUAU | -2.43 ± 0.1 | -1.21 ± 0.11 |
| GAACAGCAAUAUUACGCUGC | – | -1.69 ± 0.26 |
| GAACAGCAAUAUUACGGGAA | -2.38 ± 0.2 | 0.0433 ± 0.14 |
| GAACAGCAAUAUUACGUAAG | -1.06 ± 0.083 | -0.059 ± 0.093 |
| GAACAGCAAUAUUACGUAAU | -0.976 ± 0.065 | -0.107 ± 0.09 |
| GAACAGCAAUAUUACGUCGC | -1.61 ± 0.11 | -0.68 ± 0.12 |
| GAACAGCAAUAUUACGUGAU | -0.746 ± 0.058 | -0.432 ± 0.075 |
| GAACAGCAAUAUUACGUGCA | -1.09 ± 0.065 | 0.0769 ± 0.089 |
| GAACAGCAAUAUUACGUGCG | -0.551 ± 0.065 | -0.41 ± 0.074 |
| GAACAGCAAUAUUACGUGGA | -2.32 ± 0.1 | -1.95 ± 0.094 |
| GAACAGCAAUAUUACGUGGG | -3.42 ± 0.11 | -1.9 ± 0.091 |

| Sequence | self-splicing fitness (ln) (30 °C) | self-splicing fitness (ln) (37 °C) |
| --- | --- | --- |
| GAACAGCAAUAUUACGUGUU | -3.97 ± 0.17 | -2.61 ± 0.16 |
| GAAGAGCAAUAUUACGAACU | -1.43 ± 0.15 | -0.479 ± 0.17 |
| GAAGAGCAAUAUUACGAAGA | -2.62 ± 0.26 | -2.48 ± 0.24 |
| GAAGAGCAAUAUUACGACGU | -0.922 ± 0.16 | -0.536 ± 0.18 |
| GAAGAGCAAUAUUACGAGCA | – | -1.33 ± 0.33 |
| GAAGAGCAAUAUUACGAUCA | -2.36 ± 0.21 | -1.01 ± 0.19 |
| GAAGAGCAAUAUUACGCAUA | -3.1 ± 0.19 | -2.62 ± 0.22 |
| GAAGAGCAAUAUUACGCCUU | -2.52 ± 0.37 | -1.55 ± 0.33 |
| GAAGAGCAAUAUUACGCGCC | -3.56 ± 0.47 | -1.43 ± 0.26 |
| GAAGAGCAAUAUUACGGAAA | -2.81 ± 0.14 | -2.93 ± 0.22 |
| GAAGAGCAAUAUUACGGCUG | -2.1 ± 0.16 | -1.22 ± 0.18 |
| GAAGAGCAAUAUUACGGGCU | -3.17 ± 0.17 | -3.07 ± 0.28 |
| GAAGAGCAAUAUUACGGGUG | -3.28 ± 0.15 | -2.01 ± 0.17 |
| GAAGAGCAAUAUUACGGUAU | -3.7 ± 0.23 | -2.46 ± 0.31 |
| GAAGAGCAAUAUUACGGUCU | -2.52 ± 0.26 | -0.469 ± 0.24 |
| GAAGAGCAAUAUUACGUAUU | -3.86 ± 0.28 | -1.04 ± 0.13 |
| GAAGAGCAAUAUUACGUCCG | -3.48 ± 0.39 | – |
| GAAGAGCAAUAUUACGUCUG | -2.34 ± 0.14 | -1.76 ± 0.16 |
| GAAUAGCAAUAUUACGACUC | -0.601 ± 0.13 | -1.34 ± 0.18 |
| GAAUAGCAAUAUUACGACUG | 0.089 ± 0.15 | -1.43 ± 0.17 |
| GAAUAGCAAUAUUACGACUU | 0.269 ± 0.073 | 0.548 ± 0.092 |
| GAAUAGCAAUAUUACGAUUA | -0.73 ± 0.093 | 0.156 ± 0.11 |
| GAAUAGCAAUAUUACGCAGU | -2.57 ± 0.15 | -0.857 ± 0.12 |
| GAAUAGCAAUAUUACGCCCU | -0.167 ± 0.19 | 0.00214 ± 0.21 |
